Reference: patent US20060093617A1
Where two headings read alike, the source gives them in different places.

Assays:
[1] = target: HLA-A0101 (human); test: competition with 125I-labelled probe peptide, purified HLA
[2] = target: HLA-DRB1*0101 (human); test: competition with 125I-labelled probe peptide on purified HLA-DR; details: remark: other sources report otherwise
[3] = target: HLA-DRB1*0101 (human); test: competition vs 125I-labelled probe peptide, purified HLA-DR
[4] = target: HLA-DRB1*0301 (human); test: as above
[5] = target: HLA-B*0702 (human); test: competition with 125I-labeled probe peptide, purified HLA
[6] = target: HLA-B0702 (human); test: competition vs 125I-labelled probe peptide, purified soluble HLA
[7] = target: HLA-Cw0602 (human); details: remark: other sources report otherwise
[8] = target: HLA-Cw0702 (human)
[9] = target: HLA-A0301 (human)
[10] = target: HLA-A*0301 (human); test: competition with 125I-labelled probe peptide on purified soluble HLA
[11] = target: HLA-B0801 (human); test: competition with 125I-labelled probe peptide, purified HLA
[12] = target: HLA-B0702 (human); test: competition vs 125I probe peptide, purified HLA; details: remark: other sources report otherwise
[13] = target: HLA-B0702 (human); test: competition with 125I-labelled probe peptide on purified soluble HLA; details: remark: other sources report otherwise
[14] = target: HLA-A0301 (human); test: competition vs 125I-labelled probe peptide, purified soluble HLA
[15] = target: HLA-A2402 (human)
[16] = target: HLA-Cw0602 (human)
[17] = target: HLA-A*0101 (human); test: competition with 125I-labelled probe peptide on purified HLA-A*0101
[18] = target: HLA-B0702 (human); details: remark: other sources report otherwise
[19] = target: HLA-B0801 (human); test: competition vs 125I probe peptide, purified HLA; details: remark: other sources report otherwise
[20] = remark: other sources report otherwise

Binder: LHGPTPLLY (modifications not checked)
- Ki [1]: 20000 nM

Binder: SYTWTGALITPCAAE (modifications not checked)
- IC50 [2]: 5.63 nM

Binder: GHRMAWDMMMNWSPT (modifications not checked) [… (SEQ ID NO 2142)]
- IC50 [3]: 183 nM
- IC50 [4]: 919 nM

Binder: AAKLSALGL (modifications not checked)
- IC50 [5]: 277 nM
- Ki [6]: 277 nM

Binder: TYSTYGKFL (modifications not checked)
- Ki [7]: 4860 nM
- Ki [8]: 239 nM

Binder: RVFTEAMTR (modifications not checked)
- Ki [9]: < 1000 nM
- IC50 [10]: 45 nM

Binder: YLKGSSGGPL (modifications not checked)
- Ki [11]: 10 nM

Binder: PTHYVPESDAAARVT (modifications not checked) [… (SEQ ID NO 2193)]
- IC50 [4]: 4950 nM

Binder: LPRRGPRLGV (modifications not checked)
- Ki [12]: 3 nM
- Ki [13]: 3 nM

Binder: RVCEKMALY (modifications not checked)
- Ki [9]: < 1000 nM
- IC50 [10]: 53 nM

Binder: APLGGAARAL (modifications not checked)
- Ki [12]: 1 nM
- IC50 [5, 20]: 0.8 nM
- Ki [13]: 1 nM

Binder: YLFNWAVRTK (modifications not checked)
- Ki [14]: < 1000 nM

Binder: APTLWARMIL (modifications not checked)
- Ki [12]: 1 nM
- Ki [13]: 1 nM

Binder: YYRGLDVSVI (modifications not checked)
- Ki [15]: 2 nM
- Ki [8]: 87 nM

Binder: ARALAHGVRV (modifications not checked)
- Ki [16]: 9880 nM

Binder: FTDNSSPPA (modifications not checked)
- Ki [1]: 10 nM
- IC50 [17]: 10 nM

Binder: GPRLGVRATRKTSER (modifications not checked) [… (SEQ ID NO 2149)]
- IC50 [4]: 18900 nM

Binder: QPRGRRQPI (modifications not checked)
- Ki [18]: < 1000 nM
- Ki [12]: 1 nM
- Ki [11, 20]: 3 nM
- Ki [13]: 1 nM

Binder: DQRPYCWHY (modifications not checked)
- Ki [8]: 710 nM

Binder: EARQAIRSL (modifications not checked)
- Ki [19]: 9 nM

Binder: YRRCRASGVL (modifications not checked)
- Ki [8]: 83 nM
